Test system: MPTP-lesioned mice
Assay: MPTP-induced neuronal loss in substantia nigra pars compacta, intraventricular infusion
Format: in vivo, mouse
Details: for Total number of tyrosine hydroxylase neurons in the bilateral substantia nigra pars compacta: PDGF-BB intraventricularly 0.1 μg/h/kg for three days, two months later, Mean ± S.E.M
Description: Ten-week old male C57B1/6 mice (25 g, B&K Universal, Stockholm, Sweden).
PDGF-BB (Sigma) was administered directly into the right lateral ventricle of the brain using osmotic pumps (Alza 1003D, delivery of 1.0 μl/h for three days) and brain infusion kits. The drug solution was prepared as follows: 10 μg PDGF-BB was dissolved in 10 μl 1M HAc, after which pH was adjusted to 7.4 by adding 10 μl NaOH. A buffer was added (100 ml 0.01M PBS containing 5 mg/ml BSA and 20 mM Hepes) to a final volume of 4,000 μl. Each minipump was connected to a brain infusion needle, which was stereotaxically placed in the right lateral ventricle of the mouse brain in deeply anesthetized mice (chloral hydrate 60 mg/kg intraperitoneal). The pump was placed subcutaneously in the neck. The delivery rate of PDGF-BB was 0.1 μg/h/kg body weight. ^3H-thymidine (6.7 Ci/ml, NEN) was given for three days via another Alzet pump which was placed intraperitoneally.
One hour after the pumps were inserted, the neurotoxin 1-methyl-4-phenyl-1,2,3,6-tetrahydropyridine (MPTP HCl, Sigma) was given subcutaneously (40 mg/kg).
Two months later, animals were anesthetized with choral hydrate (60 mg/kg ip) and sacrificed by intracardial infusion of fixative (4% paraformaldehyde in 0.1 M phosphate buffered saline (PBS) containing 0.4% picric acid. After dissection, postfixation in the same fixative continued for 1.5 h followed by cryoprotection. After dissection of the midbrain, the two sides of the brain were separated with a cut along the ventro-dorsal midline and the tissue was postfixed in the same solution and cryoprotected in sucrose. Cryostat sections were prepared as follows: a randomly chosen half-brain was cut into 40 μm thick sections through the full rostro-caudal extension of substantia nigra pars compacta. A randomly chosen series of every 6th section was taken to perform free-floating immunohistochemistry using a polyclonal anti-tyrosine hydroxylase antibody (diluted 1:400, Pel-Freez) in order to identify dopaminergic neurons in the tissue. To visualize the antibody, the avidin-biotin peroxidase kit (Vector) with 0.03% DAB as chromagen was used adding 0.01% H2O2. Cresyl violet was employed to identify the nucleolus, Nissl substance and glia cells (Chan et al., 1997; Walters et al., 1999). The other half of the brain was sectioned in 10 μm thick sections on glass and a randomly chosen series of every 6th section was immunohistochemically stained for tyrosine hydroxylase in dopaminergic neurons as previously described. To detect incorporation of the ^3H-thymidine nucleotide in brain cells, the sampled slides were dipped in NTB2 nuclear track emulsion (Kodak) and stored in light-tight boxes at −20° C. for four weeks. […]

B1: PDGF-BB: human recombinant PDGF-BB, platelet derived growth factor B-chain homodimer (protein)
chain: SLGSLTIAEPAMIAECKTRTEVFEISRRLIDRTNANFLVWPPCVEVQRCSGCCNNRNVQCRPTQVQLRPVQVRKIEIVRKKPIFKKATVTLEDHLACKCETVAAARPVT
- cell number in the substantia nigra (MPTP lesioned mice after infusion of PDGF): double
- Total number of tyrosine hydroxylase neurons in the bilateral substantia nigra pars compacta (MPTP-lesioned (40 mg/kg s.c.)): 10,000 ± 200
- MPTP-induced loss of tyrosine hydroxylase positive nerve cells (after an MPTP lesion): completely counteracted
- Total number of tyrosine hydroxylase neurons in the bilateral substantia nigra pars compacta (no MPTP lesion): 12,300 ± 300
